Test results as given in patent publication US20060172958.

Molecular target: recombinant His-tagged PLS3 protein (pQE vector) (UniProt Q9NRY6)
Sequence (Q9NRY6 whole entry): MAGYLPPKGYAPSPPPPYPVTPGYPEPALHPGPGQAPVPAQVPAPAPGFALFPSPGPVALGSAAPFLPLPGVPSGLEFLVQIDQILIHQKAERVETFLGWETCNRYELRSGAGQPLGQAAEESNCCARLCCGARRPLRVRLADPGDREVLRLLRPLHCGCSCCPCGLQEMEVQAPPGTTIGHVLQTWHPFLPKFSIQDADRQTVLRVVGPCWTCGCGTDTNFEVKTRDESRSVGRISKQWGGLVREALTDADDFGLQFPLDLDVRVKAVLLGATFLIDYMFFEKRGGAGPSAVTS

## recombinant PKC-δ enzyme (Calbiochem)
  in vitro phosphorylation: The PLS3 protein was a high-affinity substrate for PKC-δ and the phosphorylation steadily increased over the first 25 minutes
  km: it was determined that the km is 10.5 nM
